Measurements: patent US20130195871A1 (AbbVie / Abbott, published 2013)

Key:
[1] = target: T1, Recombinant Human MSP Receptor ECD-His tag (human, UniProt Q04912 25-957); experiment: SPR (Biacore), N-terminal VD;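 also: capture of antibodies or DVD-Ig proteins on an anti-mouse IgG chip surface, recombinant antigen injected at 10–200 nM in HBS-EP running buffer at 25 °C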
T1 construct: extracellular domain; bought reagent; also called RON
Experimental: (§1) The BIACORE assay (Biacore, Inc, Piscataway, N.J.) determined the affinity of antibodies or DVD-Ig proteins with kinetic measurements of on-rate and off-rate constants. Binding of antibodies or DVD-Ig proteins to a target antigen (for example, a purified recombinant target antigen) was determined by surface plasmon resonance-based measurements with a Biacore® 1000 or 3000 instrument (Biacore AB, Uppsala. Sweden) using running HBS-EP (10 mM HEPES [pH 7.4], 150 mM NaCl, 3 mM EDTA, and 0.005% surfactant P20) at 25° C. […] For example, approximately 5000 RU of goat anti-mouse IgG, (Fcγ), fragment specific polyclonal antibody (Pierce Biotechnology Inc, Rockford, Ill.) diluted in 10 mM sodium acetate (pH 4.5) was directly immobilized across a CM5 research grade biosensor chip using a standard amine coupling kit according to manufacturer's instructions and procedures at 25 μg/ml. Unreacted moieties on the biosensor surface were blocked with ethanolamine. Modified carboxymethyl dextran surface in flowcell 2 and 4 was used as a reaction surface. Unmodified carboxymethyl dextran without goat anti-mouse IgG in flow cell 1 and 3 was used as the reference surface. For kinetic analysis, rate equations derived from the 1:1 Langmuir binding model were fitted simultaneously to association and dissociation phases of all eight injections (using global fit analysis) with the use of Biaevaluation 4.0.1 software. Purified antibodies or DVD-Ig proteins were diluted in HEPES-buffered saline for capture across goat anti-mouse IgG specific reaction surfaces. Antibodies or DVD-Ig proteins to be captured as a ligand (25 μg/ml) were injected over reaction matrices at a flow rate of 5 μl/minute. The association and dissociation rate constants, kₒₙ (M⁻¹s⁻¹) and koff (s⁻¹) were determined under a continuous flow rate of 25 μl/minute. Rate constants were derived by making kinetic binding measurements at different antigen concentrations ranging from 10-200 nM. The equilibrium dissociation constant (M) of the reaction between antibodies or DVD-Ig proteins and the target antigen was then calculated from the kinetic rate constants by the following formula: KD=koff/kₒₙ. Binding was recorded as a function of time and kinetic rate constants were calculated.

Recombinant Human IGF1R [2] = target: T2, Recombinant Human IGF1R (human, UniProt P08069 31-932); experiment: SPR (Biacore), C-terminal VD;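 also: surface plasmon resonance with DVD-Ig proteins captured on an anti-IgG chip and recombinant antigen flowed over in HBS-EP buffer, Langmuir global fit, KD taken as koff/kon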
T2 construct: bought reagent

EGFR on the cell surface [3] = target: T3, EGFR on the cell surface (human, UniProt P00533 25-1210); experiment: flow cytometry on cells, 2 ug/mL, N-terminal VD;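 also: cells stained for 30 to 60 min on ice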
T3 construct: whole, on cells
Experimental: (§2) Stable cell lines overexpressing a cell-surface antigen of interest or human tumor cell lines were harvested from tissue culture flasks and resuspended in phosphate buffered saline (PBS) containing 5% fetal bovine serum (PBS/FBS). Prior to staining, human tumor cells were incubated on ice with (100 μl) human IgG at 5 μg/ml in PBS/FCS. 1-5×10⁵ cells were incubated with antibody or DVD-Ig (2 μg/mL) in PBS/FBS for 30-60 minutes on ice. […] After 30 minutes incubation on ice, cells were washed twice and resuspended in PBS/FBS. Fluorescence was measured using a Becton Dickinson FACSCalibur (Becton Dickinson, San Jose, Calif.).
(§3) The geometric mean is the n root of the multiplication product of n fluorescent signals (a1×a2×a3 . . . an). With log-transformed data the geometric mean is used to normalize the weighting of the data distribution.

EGFR on the cell surface [4] = target: T3, EGFR on the cell surface; experiment: flow cytometry on cells, 2 ug/mL, C-terminal VD;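 also: cells stained for 30 to 60 min on ice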
Experimental: as §2, §3

Recombinant Human IGF1R [5] = target: T2, Recombinant Human IGF1R; experiment: SPR (Biacore)
Experimental: as §1

B1: DVD2324 (bispecific antibody)
VH: EVQLVQSGGGLVKPGGSLRLSCAASGFTFSSYAMHWVRQAPGKGLEWVAVISYDGSNKYYADSVKGRFTISRDNSKNTLYLQMNSLRAEDTAVYYCARFSGWPNNYYYYGMDVWGQGTTVTVSSASTKGPEVQLVQSGGGLVKPGGSLRLSCAASGFTFSSFAMHWVRQAPGKGLEWISVIDTRGATYYADSVKGRFTISRDNAKNSLYLQMNSLRAEDTAVYYCARLGNFYYGMDVWGQGTTVTVSS
VL: DVVMTQSPLSLPVTPGEPASISCRSSQSLLHSNGFNYVDWYLQKPGQSPHLLIYFGSYRASGVPDRFSGSGSGTDFTLKISRVEAEDVGVYYCMQALQTPPWTFGQGTKVEIRRTVAAPEIVLTQSPGTLSVSPGERATLSCRASQSIGSSLHWYQQKPGQAPRLLIKYASQSLSGIPDRFSGSGSGTDFTLTISRLEPEDFAVYYCHQSSRLPHTFGQGTKVEIK
notes: DVD-Ig, outer AB005 / inner AB077
[1]
  Kd: 21 nM
  koff: 0.00093 s⁻¹
  kon: 44000 M⁻¹ s⁻¹
Recombinant Human IGF1R [2]
  binding result: no binding (tested: 10-200 nM)

B2: DVD2326 (bispecific antibody)
VH: EVQLVQSGGGLVKPGGSLRLSCAASGFTFSSYAMHWVRQAPGKGLEWVAVISYDGSNKYYADSVKGRFTISRDNSKNTLYLQMNSLRAEDTAVYYCARFSGWPNNYYYYGMDVWGQGTTVTVSSASTKGPEVQLLESGGGLVQPGGSLRLSCTASGFTFSSYAMNWVRQAPGKGLEWVSAISGSGGTTFYADSVKGRFTISRDNSRTTLYLQMNSLRAEDTAVYYCAKDLGWSDSYYYYYGMDVWGQGTTVTVSS
VL: DVVMTQSPLSLPVTPGEPASISCRSSQSLLHSNGFNYVDWYLQKPGQSPHLLIYFGSYRASGVPDRFSGSGSGTDFTLKISRVEAEDVGVYYCMQALQTPPWTFGQGTKVEIRRTVAAPDIQMTQFPSSLSASVGDRVTITCRASQGIRNDLGWYQQKPGKAPKRLIYAASRLHRGVPSRFSGSGSGTEFTLTISSLQPEDFATYYCLQHNSYPCSFGQGTKLEIK
notes: DVD-Ig, outer AB005 / inner AB011
[1]
  Kd: 21 nM
  koff: 0.00091 s⁻¹
Recombinant Human IGF1R [2]
  binding result: no binding (tested: 10-200 nM)

B3: DVD2336 (bispecific antibody)
VH: QVQLQESGPGLVKPSEILSLTCTVSGGSISSHYWSWVRQPPGKGLEWIGYIYYSGSTNYNPSLKSRVTISVDTSKNQFSLNLSSVTAADTAVYYCARIPNYYDRSGYYPGYWYFDLWGRGTLVTVSSASTKGPEVQLVQSGGGLVKPGGSLRLSCAASGFTFSSFAMHWVRQAPGKGLEWISVIDTRGATYYADSVKGRFTISRDNAKNSLYLQMNSLRAEDTAVYYCARLGNFYYGMDVWGQGTTVTVSS
VL: QAVLTQPSSLSAPPGASASLTCTLRSGFNVDSYRISWYQQKPGSPPQYLLRYKSDSDKQQGSGVPSRFSGSKDASANAGILLISGLQSEDEADYYCMIWHSSAWVFGGGTKLTVLRQPKAAPEIVLTQSPGTLSVSPGERATLSCRASQSIGSSLHWYQQKPGQAPRLLIKYASQSLSGIPDRFSGSGSGTDFTLTISRLEPEDFAVYYCHQSSRLPHTFGQGTKVEIK
notes: DVD-Ig, outer AB034 / inner AB077
[1]
  Kd: 40 nM
Recombinant Human IGF1R [2]
  binding result: no binding (tested: 10-200 nM)

B4: DVD2340 (bispecific antibody)
VH: QVQLQESGPGLVKPSEILSLTCTVSGGSISSHYWSWVRQPPGKGLEWIGYIYYSGSTNYNPSLKSRVTISVDTSKNQFSLNLSSVTAADTAVYYCARIPNYYDRSGYYPGYWYFDLWGRGTLVTVSSASTKGPEVQLLESGGGLVQPGGSLRLSCTASGFTFSSYAMNWVRQAPGKGLEWVSAISGSGGTTFYADSVKGRFTISRDNSRTTLYLQMNSLRAEDTAVYYCAKDLGWSDSYYYYYGMDVWGQGTTVTVSS
VL: QAVLTQPSSLSAPPGASASLTCTLRSGFNVDSYRISWYQQKPGSPPQYLLRYKSDSDKQQGSGVPSRFSGSKDASANAGILLISGLQSEDEADYYCMIWHSSAWVFGGGTKLTVLRQPKAAPDIQMTQFPSSLSASVGDRVTITCRASQGIRNDLGWYQQKPGKAPKRLIYAASRLHRGVPSRFSGSGSGTEFTLTISSLQPEDFATYYCLQHNSYPCSFGQGTKLEIK
notes: DVD-Ig, outer AB034 / inner AB011
[1]
  Kd: 23 nM
Recombinant Human IGF1R [2]
  binding result: no binding (tested: 10-200 nM)

B5: DVD2290 (bispecific antibody)
VH: EVQLVESGGGLVQPGGSLRLSCAASGFSLTNYGVHWVRQAPGKGLEWLGVGWSGGNTDYNTPFTSRLTINKDNSKNTVYLQMNSLRAEDTAVYYCARALTWYDYEFAYWGQGTLVTVSSASTKGPQVQLQESGPGLVKPSETLSLTCTVSGGSVSSGDYYWTWIRQSPGKGLEWIGHIYYSGNTNYNPSLKSRLTISIDTSKTQFSLKLSSVTAADTAIYYCVRDRVTGAFDIWGQGTMVTVSS
VL: DILLTQSPGTLSLSPGERATLSCRASQSIYTNIHWYQQKPGQAPRLLIKYASESISGIPDRFSGSGSGTDFTLTISRLEPEDFAVYYCQQNLNWPTTFGQGTKLEIKRTVAAPDIQMTQSPSSLSASVGDRVTITCQASQDISNYLNWYQQKPGKAPKLLIYDASNLETGVPSRFSGSGSGTDFTFTISSLQPEDIATYFCQHFDHLPLAFGGGTKVEIK
EGFR on the cell surface [3]
  GEO MEAN: 448
EGFR on the cell surface [4]
  GEO MEAN: 448

B6: DVD2291 (bispecific antibody)
VH: QVQLQESGPGLVKPSETLSLTCTVSGGSVSSGDYYWTWIRQSPGKGLEWIGHIYYSGNTNYNPSLKSRLTISIDTSKTQFSLKLSSVTAADTAIYYCVRDRVTGAFDIWGQGTMVTVSSASTKGPEVQLVESGGGLVQPGGSLRLSCAASGFSLTNYGVHWVRQAPGKGLEWLGVGWSGGNTDYNTPFTSRLTINKDNSKNTVYLQMNSLRAEDTAVYYCARALTWYDYEFAYWGQGTLVTVSS
VL: DIQMTQSPSSLSASVGDRVTITCQASQDISNYLNWYQQKPGKAPKLLIYDASNLETGVPSRFSGSGSGTDFTFTISSLQPEDIATYFCQHFDHLPLAFGGGTKVEIKRTVAAPDILLTQSPGTLSLSPGERATLSCRASQSIYTNIHWYQQKPGQAPRLLIKYASESISGIPDRFSGSGSGTDFTLTISRLEPEDFAVYYCQQNLNWPTTFGQGTKLEIK
EGFR on the cell surface [3]
  GEO MEAN: 541
EGFR on the cell surface [4]
  GEO MEAN: 541

B7: DVD2214 (bispecific antibody)
VH: EVQLVQSGAEVKKPGSSVKVSCKASGGTFSSYAISWVRQAPGQGLEWMGGIIPIFGTANYAQKFQGRVTITADKSTSTAYMELSSLRSEDTAVYYCARAPLRFLEWSTQDHYYYYYMDVWGKGTTVTVSSASTKGPEVQLLESGGGLVQPGGSLRLSCTASGFTFSSYAMNWVRQAPGKGLEWVSAISGSGGTTFYADSVKGRFTISRDNSRTTLYLQMNSLRAEDTAVYYCAKDLGWSDSYYYYYGMDVWGQGTTVTVSS
VL: SSELTQDPAVSVALGQTVRITCQGDSLRSYYATWYQQKPGQAPILVIYGENKRPSGIPDRFSGSSSGNTASLTITGAQAEDEADYYCKSRDGSGQHLVFGGGTKLTVLGQPKAAPDIQMTQFPSSLSASVGDRVTITCRASQGIRNDLGWYQQKPGKAPKRLIYAASRLHRGVPSRFSGSGSGTEFTLTISSLQPEDFATYYCLQHNSYPCSFGQGTKLEIK
notes: DVD-Ig, outer AB075 / inner AB011
Recombinant Human IGF1R [5]
  Kd: 5.5 nM
  koff: 0.00014 s⁻¹
  kon: 26000 M⁻¹ s⁻¹

B8: DVD2347 (bispecific antibody)
VH: EVQLVQSGGGLVKPGGSLRLSCAASGFTFSSFAMHWVRQAPGKGLEWISVIDTRGATYYADSVKGRFTISRDNAKNSLYLQMNSLRAEDTAVYYCARLGNFYYGMDVWGQGTTVTVSSASTKGPQVQLQESGPGLVKPSQTLSLTCTVSGYSISSDFAWNWIRQPPGKGLEWMGYISYSGNTRYQPSLKSRITISRDTSKNQFFLKLNSVTAADTATYYCVTAGRGFPYWGQGTLVTVSS
VL: EIVLTQSPGTLSVSPGERATLSCRASQSIGSSLHWYQQKPGQAPRLLIKYASQSLSGIPDRFSGSGSGTDFTLTISRLEPEDFAVYYCHQSSRLPHTFGQGTKVEIKRTVAAPDIQMTQSPSSMSVSVGDRVTITCHSSQDINSNIGWLQQKPGKSFKGLIYHGTNLDDGVPSRFSGSGSGTDYTLTISSLQPEDFATYYCVQYAQFPWTFGGGTKLEIK
EGFR on the cell surface [4]
  GEO MEAN: 9.84

B9: DVD2216 (bispecific antibody)
VH: B7 VH
VL: SSELTQDPAVSVALGQTVRITCQGDSLRSYYATWYQQKPGQAPILVIYGENKRPSGIPDRFSGSSSGNTASLTITGAQAEDEADYYCKSRDGSGQHLVFGGGTKLTVLGQPKAAPSVTLFPPDIQMTQFPSSLSASVGDRVTITCRASQGIRNDLGWYQQKPGKAPKRLIYAASRLHRGVPSRFSGSGSGTEFTLTISSLQPEDFATYYCLQHNSYPCSFGQGTKLEIK
notes: as for B7
Recombinant Human IGF1R [5]
  Kd: 6.6 nM
  koff: 0.00012 s⁻¹
  kon: 19000 M⁻¹ s⁻¹

B10: DVD2279 (bispecific antibody)
VH: EVQLVESGGGLVQPGGSLRLSCAASGFTFSIYSMNWVRQAPGKGLEWVSYISSSSSTIYYADSVKGRFTISRDNAKNSLYLQMNSLRDEDTAVYYCARDRGDFDAFDIWGQGTMVTVSSASTKGPEVQLVQSGAEVKKPGSSVKVSCKASGGTFSSYAISWVRQAPGQGLEWMGGIIPIFGTANYAQKFQGRVTITADKSTSTAYMELSSLRSEDTAVYYCARAPLRFLEWSTQDHYYYYYMDVWGKGTTVTVSS
VL: DIQMTQSPSSLSASVGDRVTITCQASQDITNYLNWYQQKPGKAPKLLIYDASNLETGVPSRFSGSGSGTDFTFTISSLQPEDIATYNCQQCENFPITFGQGTRLEIKRTVAAPSSELTQDPAVSVALGQTVRITCQGDSLRSYYATWYQQKPGQAPILVIYGENKRPSGIPDRFSGSSSGNTASLTITGAQAEDEADYYCKSRDGSGQHLVFGGGTKLTVL
notes: DVD-Ig, outer AB063 / inner AB075
Recombinant Human IGF1R [2]
  Kd: 0.047 nM
  koff: 2.3e-06 s⁻¹
  kon: 49000 M⁻¹ s⁻¹

B11: DVD2283 (bispecific antibody)
VH: QVQLQQWGAGLLKPSETLSLTCAVYGGSFSGYYWSWIRQPPGKGLEWIGEINHSGSTNYNPSLKSRVTISVETSKNQFSLKLSSVTAADTAVYYCARDKWTWYFDLWGRGTLVTVSSASTKGPEVQLVQSGAEVKKPGSSVKVSCKASGGTFSSYAISWVRQAPGQGLEWMGGIIPIFGTANYAQKFQGRVTITADKSTSTAYMELSSLRSEDTAVYYCARAPLRFLEWSTQDHYYYYYMDVWGKGTTVTVSS
VL: DIEMTQSPDSLAVSLGERATINCRSSQSVLYSSSNRNYLAWYQQNPGQPPKLLIYWASTRESGVPDRFSGSGSGTDFTLTISSLQAEDVAVYYCQQYYSTPRTFGQGTKVEIKRTVAAPSSELTQDPAVSVALGQTVRITCQGDSLRSYYATWYQQKPGQAPILVIYGENKRPSGIPDRFSGSSSGNTASLTITGAQAEDEADYYCKSRDGSGQHLVFGGGTKLTVL
notes: DVD-Ig, outer AB062 / inner AB075
Recombinant Human IGF1R [2]
  Kd: 5 nM
  koff: 0.00012 s⁻¹
  kon: 25000 M⁻¹ s⁻¹
